Tested on: Antioxidant Response Element (ARE) Luciferase HepG2 Reporter cells
Method: Cells were plated at a seeding density of 25k cells/well into 96 well plates in cell growth media and allowed to incubate for 24 hours. […] After 24 hours, 10 μL of MTS reagent was added to each well, and the cells incubated for four hours at 37° C. Absorbance was measured at 490 nm using a Perkin Elmer EnSpire plate reader every hour after MTS addition. Viability was assessed after background subtraction from cell free control wells and calculated as relative viability based on the average of control wells. Viability is reported as a percentage of control groups and prepared for presentation using Prism9.
The reporter and cell viability assays were performed over a concentration range of 0 μM to 10 μM for each of the polymers described.
Cells were plated at a seeding density of 25k cells/well into 96 well plates in cell growth media and allowed to incubate for 24 hours. […] Luminescence was assessed using the Biotek SynergyNeo2 plate reader at the High Throughput Analysis Core at Northwestern University. Background luminescence of cell free controls wells was subtracted from test wells. […] Absorbance was measured at 490 nm using a Perkin Elmer EnSpire plate reader every hour after MTS addition. Viability was assessed after background subtraction from cell free control wells and calculated as relative viability based on the average of control wells. […]

## DLG Homopolymer (RQDIDLGVSRR)
  tolerability (MTS assay): well tolerated

Source: US20250223317A1, “KEAP1 INHIBITING PROTEIN-LIKE POLYMERS” (NORTHWESTERN UNIVERSITY, priority 2022, published 2025)
